{
  "source": "paper PMC3299407",
  "about": "(Biochemical Journal, 2011)",
  "proteins": {"B1": {"name": "myc-laforin wild type (pCMVmyc-laforin WT) (natural protein, human, UniProt O95278 1-331, looked up)", "chain": "MRFRFGVVVPPAVAGARPELLVVGSRPELGRWEPRGAVRLRPAGTAAGDGALALQEPGLWLGEVELAAEEAAQDGAEPGRVDTFWYKFLKREPGGELSWEGNGPHHDRCCTYNENNLVDGVYCLPIGHWIEATGHTNEMKHTTDFYFNIAGHQAMHYSRILPNIWLGSCPRQVEHVTIKLKHELGITAVMNFQTEWDIVQNSSGCNRYPEPMTPDTMIKLYREEGLAYIWMPTPDMSTEGRVQMLPQAVCLLHALLEKGHIVYVHCNAGVGRSTAAVCGWLQYVMGWNLRKVQYFLMAKRPAVYIDEEALARAQEDFFQKFGKVRSSVCSL"}, "B2": {"name": "myc-laforin S25D (pCMVmyc-laforin S25D) (natural protein, human, UniProt O95278 1-331, looked up)", "chain": "MRFRFGVVVPPAVAGARPELLVVGDRPELGRWEPRGAVRLRPAGTAAGDGALALQEPGLWLGEVELAAEEAAQDGAEPGRVDTFWYKFLKREPGGELSWEGNGPHHDRCCTYNENNLVDGVYCLPIGHWIEATGHTNEMKHTTDFYFNIAGHQAMHYSRILPNIWLGSCPRQVEHVTIKLKHELGITAVMNFQTEWDIVQNSSGCNRYPEPMTPDTMIKLYREEGLAYIWMPTPDMSTEGRVQMLPQAVCLLHALLEKGHIVYVHCNAGVGRSTAAVCGWLQYVMGWNLRKVQYFLMAKRPAVYIDEEALARAQEDFFQKFGKVRSSVCSL"}},
  "molecular_target": "the molecule itself",
  "test": "native gel or EMSA",
  "data": [
    {"protein": "B1", "values": [
      {"measurement": "stoichiometry N", "value": 2}
    ]},
    {"protein": "B2", "values": [
      {"measurement": "stoichiometry N", "value": 2}
    ]}
  ]
}
